From patent US20250092130A1 (INNATE PHARMA, published 2025)

B1: antibody 12B11 (antibody, IgG1, V domains shown)
VH: QLVQSGPELKNPGETVKISCKASGYTFTNYGMNWVKQAPGKGLKWMGWINTYTGEPTYADDFKGRFAFSLETSASTAYLQINNLKNEDTATYFCAHGPWLAYWGQGTLVTVS
VL: DIKMTQSPSSMYASLGERVTITCKASQDINVYLSWFQQKPGKSPKTLIYRAIRLVDGVPSRFSGSGSGQDYSLTISSLDYEDMGIYYCLQYDELPYTFGGGTKLEIE
notes: Mouse monoclonal
B2: antibody 2B12 (antibody, V domains shown)
VH: QIQLVQSGPELKKPGETVRISCKASGYTFTTAGMQWVQKTPGKGLKWIGWINSHSGVPKYAEDFKGRFAFSLETSASTAYLQISTLKNEDTATYFCARGGDEGVMDYWGQGTSVTVS
VL: DIVMTQSHKFMSTSLGDRVSFTCKASQDVSTAVAWYQQKPGQSPKLLIYWTSTRHTGVPDRFTGSGSGTDYTLTISSVQAEDLALYYCQQHYSTPWTFGGGTKLEIK
B3: antibody 19H12 (antibody, IgG2b, V domains shown)
VH: QIQLVQSGPELKKPGETVKISCKASGYTFTNFGMNWVKQAPGKGLKWMGWINTYTGEPTYADDFKGRFAFSLETSASTAYLQINNLKNEDMATYFCARNGNFGYYFDYWGQGTTLTVSS
VL: DVLMTQTPLSLPVSLGDQASFSCRSSQNIVHSNGNTYLEWYLQKPGQSPSLLIYKVSNRFSGVPDRFSGSGSGTDFTLKITRVEAEDLGVYYCFQGSHVPFTFGSGTKLEIK
notes: Mouse monoclonal from a hybridoma; also called anti-KIR3DL2 19H12

Columns and labels:
[1] = biological target: KIR3DL2 mutant 11A1 (V178A, H180S) (human, UniProt P43630 22-455); assay: binding to cells transfected with KIR3DL2 mutants
Chain of KIR3DL2 mutant 11A1 (V178A, H180S) (P43630 other isoform, or with tags, fused parts or gaps V178A H180S V178A H180S): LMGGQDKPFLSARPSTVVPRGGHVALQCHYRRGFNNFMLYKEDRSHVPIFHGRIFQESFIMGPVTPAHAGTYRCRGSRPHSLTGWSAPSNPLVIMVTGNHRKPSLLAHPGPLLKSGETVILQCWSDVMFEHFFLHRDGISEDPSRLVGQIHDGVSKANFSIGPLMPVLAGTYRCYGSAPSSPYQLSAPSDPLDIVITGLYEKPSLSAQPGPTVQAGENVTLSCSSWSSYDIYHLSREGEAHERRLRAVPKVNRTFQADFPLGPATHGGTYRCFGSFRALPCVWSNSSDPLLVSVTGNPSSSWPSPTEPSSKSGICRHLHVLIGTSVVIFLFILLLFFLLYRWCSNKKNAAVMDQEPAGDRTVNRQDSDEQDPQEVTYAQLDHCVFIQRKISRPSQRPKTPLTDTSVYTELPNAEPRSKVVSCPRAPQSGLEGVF

[2] = biological target: KIR3DL2 mutant 11 (P179T, S181T) (human, UniProt P43630 22-455); assay: binding to cells transfected with KIR3DL2 mutants
Chain of KIR3DL2 mutant 11 (P179T, S181T) (P43630 other isoform, or with tags, fused parts or gaps P179T S181T P179T S181T): as the sequence (P43630 other isoform, or with tags, fused parts or gaps V178A H180S V178A H180S) above, with A178V, P179T, S180H, S181T counted along it

[3] = biological target: T1, human KIR3DL2 (wild-type, allele *002) (human, UniProt P43630 22-455); assay: immunohistochemistry (DAB) on frozen sections of RAJI-KIR3DL2 tumors and cell lines
T1 construct: also called CD158k; WTaKIR3DL2
T1 sequence (P43630 22-455 E158D): as the sequence (P43630 other isoform, or with tags, fused parts or gaps V178A H180S V178A H180S) above, with A178V, S180H counted along it
Method: Tumor biopsies from RAJI-KIR3DL2 models and RAJI-KIR3DL2 cell lines were obtained and staining was performed on frozen samples using AZ158 antibody (see WO2010/081890) or antibodies 12B11 (see Example 1). KIR3DL2 was stained with anti-KIR3DL2 antibody by DAB chromogenic detection according to standard protocols, adapted for immunostaining with BenchMark XT (Ventana, Roche). For all staining control isotype (mIgG1) and control DAB were performed.

[4] = biological target: T2, KIR3DL2 mutant having I60N and G62S substitutions (human, UniProt P43630 22-455); assay: binding to KIR3DL2 mutants
T2 construct: It says 'mutants'; also called mutants having 160N and G62S substitutions
T2 sequence (P43630 other isoform, or with tags, fused parts or gaps I60N G62S I60N G62S): as the sequence (P43630 other isoform, or with tags, fused parts or gaps V178A H180S V178A H180S) above, with I60N, G62S, A178V, S180H counted along it

[5] = biological target: KIR3DL2 mutant M11A4 (E130S, H131S, R145S) (human, UniProt P43630 22-455); assay: binding to cells transfected with KIR3DL2 mutants
Chain of KIR3DL2 mutant M11A4 (E130S, H131S, R145S) (P43630 other isoform, or with tags, fused parts or gaps E130S H131S R145S E130S H131S R145S): as the sequence (P43630 other isoform, or with tags, fused parts or gaps V178A H180S V178A H180S) above, with E130S, H131S, R145S, A178V, S180H counted along it

[6] = biological target: T1, human KIR3DL2 (wild-type, allele *002); assay: flow cytometry on HUT78, COU-L and HEK-293T/KIR3DL2 Domain 0-eGFP cells; Biacore on rec KIR3DL2 chips
Method: Antibodies which bind KIR3DL2 but not closely-related KIR3DL1 were generated by immunizing mice with recombinant KIR3DL2-Fc fusion protein. Supernatants (SN) of the growing hybridomas were tested by flow cytometry on Sézary Syndrome cell lines (HUT78, COU-L) and HEK-293T/KIR3DL2 Domain 0—eGFP. Potentially interesting hybridomas selected from the initial screening were cloned by limiting dilution techniques in 96-well plates. The secondary screen involved selection of hybridomas of interest by testing supernatants of the subclones by flow cytometry on HUT78, COU-L, HEK-293T/KIR3DL1 Domain 0—eGFP and HEK-293T/KIR3DL2 Domain 0—eGFP. Positive subclones were injected into mice to produce ascitis and antibodies of interest were purified before being tested in a Biacore assay using rec KIR3DL2 chips, followed by various assay formats based on binding to human KIR3DL2-expressing cells.

Binder	binding result [1]	binding result [2]	binding result [3]	binding result [4]	binding result [5]	binding result [6]
B1	no binding	no binding	binds			
B2				no binding		
B3	no binding	no binding			no binding	binds
